{"source": "paper PMC8497785", "about": "“Structural Characterization of the RNA-Binding Protein SERBP1 Reveals Intrinsic Disorder and Atypical RNA Binding Modes”", "target": "T1, SERBP1 189-400 (Homo sapiens, UniProt Q8NC51 189-400)", "T1 sequence": "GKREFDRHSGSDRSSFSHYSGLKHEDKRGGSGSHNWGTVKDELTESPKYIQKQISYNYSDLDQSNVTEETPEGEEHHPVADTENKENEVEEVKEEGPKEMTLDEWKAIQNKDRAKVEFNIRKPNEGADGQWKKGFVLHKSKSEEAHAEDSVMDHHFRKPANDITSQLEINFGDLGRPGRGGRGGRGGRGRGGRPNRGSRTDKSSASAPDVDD", "assay": "NMR 1H,15N-HSQC titration; RNA:protein 2:5 to 8:5; CSPs from C-terminal RGG box to C-terminus (N383, T388, S394, A395, V398), RGG glycine broadening; 20 mM sodium phosphate pH 6.9, 60 mM NaCl, 1 mM PMSF, 0.2 mM EDTA, 10% D2O, 4 °C; 50 µM protein", "conditions": "protein: recombinant; tags: N-terminal 8xHis removed by TEV (vector-derived residues may remain)"}
{"binder": "GCGCGGG (ssRNA)", "note": "[7-mer G-rich RNA (G-quartet ligand)]", "values": [{"measurement": "binding result", "result": "binds"}]}
